{"source": "paper PMC10952772", "about": "(The Febs Journal, 2022)", "molecules": {"B1": {"name": "Human Scribble (SCRIB) PDZ2 domain (860-950) (domain or fragment)", "chain": "RHVACLARSERGLGFSIAGGKGSTPYRAGDAGIFVSRIAEGGAAHRAGTLQVGDRVLSINGVDVTEARHDHAVSLLTAASPTIALLLEREA"}}, "key": {"[1]": {"system": "PDZ", "details": "phosphorylated at the −2 position; ref [51], [52]; cited from earlier work"}, "[2]": {"target": "T1, Human Scribble (SCRIB) PDZ3 domain (1002-1094) (human, UniProt Q14160 1002-1094)", "T1 sequence": "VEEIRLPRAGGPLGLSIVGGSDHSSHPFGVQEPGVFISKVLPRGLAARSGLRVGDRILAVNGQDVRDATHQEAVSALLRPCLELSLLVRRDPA", "test": "ITC"}, "[3]": {"target": "T2, Human Scribble (SCRIB) PDZ1 domain (728-815) (human, UniProt Q14160 728-815)", "T2 sequence (Q14160 728-815)": "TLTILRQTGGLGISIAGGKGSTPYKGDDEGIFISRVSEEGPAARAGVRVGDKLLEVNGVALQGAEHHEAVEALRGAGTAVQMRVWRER", "test": "ITC"}, "[4]": {"target": "B1", "test": "ITC"}, "[5]": {"target": "T3, Human Scribble (SCRIB) PDZ4 domain (1099-1203) (human, UniProt Q14160 1099-1203)", "T3 sequence": "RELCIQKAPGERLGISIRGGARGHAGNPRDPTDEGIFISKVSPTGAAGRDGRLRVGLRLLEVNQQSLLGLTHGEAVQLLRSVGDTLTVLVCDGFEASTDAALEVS", "test": "ITC"}, "[6]": {"target": "the molecule itself", "test": "AUC"}, "[7]": {"target": "T1, Human Scribble (SCRIB) PDZ3 domain …", "test": "ITC", "remark": "listed apart in the source"}, "[8]": {"target": "T2, Human Scribble (SCRIB) PDZ1 domain …", "test": "ITC", "remark": "listed apart in the source"}, "[9]": {"target": "B1", "test": "ITC", "remark": "listed apart in the source"}, "[10]": {"target": "T3, Human Scribble (SCRIB) PDZ4 domain …", "test": "ITC", "remark": "listed apart in the source"}}, "note": "Like-named read-outs stand apart in the source and are kept apart here.", "data": [{"molecule": "HTLV‐1 Tax1: oncogenic Tax1 protein of HTLV‐1", "values": [{"measurement": "effect of phosphorylation at the −2 position of PBM on PDZ recognition", "setting": "[1]", "value": "phosphorylation inhibiting PDZ recognition"}]}, {"molecule": "RSWFETWV", "note": "[Superpeptide (RSWFETWV)]", "values": [{"measurement": "Kd", "setting": "[2]", "value": 1.6, "unit": "µM"}, {"measurement": "dH", "setting": "[2]", "value": -11.3, "unit": "kcal/mol"}, {"measurement": "stoichiometry N", "setting": "[2]", "value": 0.9}, {"measurement": "Kd", "setting": "[3]", "value": 0.6, "unit": "µM"}, {"measurement": "dH", "setting": "[3]", "value": -3.72, "unit": "kcal/mol"}, {"measurement": "stoichiometry N", "setting": "[3]", "value": 0.9}, {"measurement": "Kd", "setting": "[4]", "value": 2.2, "unit": "µM"}, {"measurement": "dH", "setting": "[4]", "value": -7.04, "unit": "kcal/mol"}, {"measurement": "stoichiometry N", "setting": "[4]", "value": 1}, {"measurement": "Kd", "setting": "[5]", "value": 12.6, "unit": "µM"}, {"measurement": "dH", "setting": "[5]", "value": -2.9, "unit": "kcal/mol"}, {"measurement": "stoichiometry N", "setting": "[5]", "value": 1.1}]}, {"molecule": "B1", "values": [{"measurement": "stoichiometry N", "setting": "[6]", "value": 2}]}, {"molecule": "KHFRETEV", "note": "[HTLV-1 Tax1 PBM peptide (KHFRETEV, residues 346-353)]", "values": [{"measurement": "Kd", "setting": "[7]", "value": 9.1, "unit": "µM"}, {"measurement": "dH", "setting": "[7]", "value": -13.3, "unit": "kcal/mol"}, {"measurement": "stoichiometry N", "setting": "[7]", "value": 0.9}, {"measurement": "Kd", "setting": "[8]", "value": 7.8, "unit": "µM"}, {"measurement": "dH", "setting": "[8]", "value": -4.21, "unit": "kcal/mol"}, {"measurement": "stoichiometry N", "setting": "[8]", "value": 1.1}, {"measurement": "Kd", "setting": "[9]", "value": 15.4, "unit": "µM"}, {"measurement": "dH", "setting": "[9]", "value": -4.08, "unit": "kcal/mol"}, {"measurement": "stoichiometry N", "setting": "[9]", "value": 1.1}, {"measurement": "Kd", "setting": "[10]", "value": 40.2, "unit": "µM"}, {"measurement": "dH", "setting": "[10]", "value": -2.17, "unit": "kcal/mol"}, {"measurement": "stoichiometry N", "setting": "[10]", "value": 1}]}]}
